{"source": "patent US20180134781A1", "about": "(Regeneron, published 2018)", "binders": {"B1": {"name": "H4H15334P (antibody, human IgG4, V domains shown)", "VH": "QVQLQESGPGLVKPSQTLSLTCTVSGGSINSGGYYWNWIRQHPGKGLEWIGYIYYSGSTYFNPSLKSRVTISIDTSKNQFSLKLSSVTAADTAVYYCAREGIYAFDYWGQGTLVTVSS", "VL": "DIQMTQSPSSLSASVGDRVTITCRASQGIRNDLGWYQQKPGKAPKRLIYSASSLQSGVPSRFGGSGSGTEFTLTISSLQPEDFATYYCLQHNSYPWTFGQGTKVEIK", "notes": "human IgG4 Fc (H4H prefix)"}, "B2": {"name": "H4H15354P2 (antibody, human IgG4, V domains shown)", "VH": "QVQLVESGGGVVQPGRSLRLSCTASGFTFNNYGIHWVRQAPGKGLEWVAVISYDGSNKFYAESVRGRFTISRDNSRNTLFLQMISLRGEDSAVYYCAKDRPYYDILTAHYPSDYYFYAMDVWGHGTTVTVSS", "VL": "not shown", "notes": "human IgG4 Fc (H4H prefix)"}, "B3": {"name": "H4H15346P (antibody, human IgG4, V domains shown)", "VH": "EVQLVESGGGLVQPGGSLRLSCAASGFTFSNYAMSWVRQAPGKGLEWVSTISDTGGSTYYADSVKGRFALSRDNSRNTLYLQMNSLRAEDTAVYYCAKEGPPDYWGQGTLVTVSS", "VL": "EIVLTQSPATLSLSPGERATLSCRTSQSVSIYLAWYQQKPGQAPRLLIYDASKRATGIPARFSGRGSGTDFTLTISSLEPEDFAVYYCQQRSNWPLTFGQGTRLEIK", "notes": "human IgG4 Fc (H4H prefix)"}, "B4": {"name": "H4H15321P (antibody, human IgG4, V domains shown)", "VH": "EVQLVESGGGLVQPGGSLRLSCAASGFTFSSYAMSWVRQAPGKGLEWVSAITGSGGRTYYADSVKGRFTISRDNAKNTLYLQMNSLRAEDTAVYYCAKNFPFDYWGQGTLVTVSS", "VL": "not shown", "notes": "human IgG4 Fc (H4H prefix)"}, "B5": {"name": "H4H15345P (antibody, human IgG4, V domains shown)", "VH": "B4 VH with S31T, A50V, T52S, G55F, G56I, R57S, A75S, N84T, F100S", "VL": "not shown", "notes": "human IgG4 Fc (H4H prefix)"}, "B6": {"name": "H4H15367P2 (antibody, human IgG4, V domains shown)", "VH": "QVQLVESGGGVVQPGRSVRLSCGASGFTFKYYGMHWVRQAPGKGLEWVAVIWYDGRNKFYADSVKGRFTISRDNSKNTVNLEMNNLRAEDTAIYYCARDGGTADGDYFDYWGQGTLVTVSS", "VL": "not shown", "notes": "human IgG4 Fc (H4H prefix)"}, "B7": {"name": "H4H15347P (antibody, human IgG4, V domains shown)", "VH": "EVQLVESGGGLVQPGGSLRLSCAASGFTFRNYAMNWARQAPGKGLEWVSGITGSGGATYYADSVKGRFTISRENSKNTLFLQMDTLRAEDTAVYYCAKDRRYFPTSGGPQWGQGTLVTVSS", "VL": "DIVMTQSPLSLPVTPGEPASISCRSSRSLLHSSGYNYLDWYLQKPGQSPQLLLYLGSNRASGVPDRFSGSGSGTYFTLKISRVDAEDVGVYYCMQALQTPWTFGQGTKVEIK", "notes": "human IgG4 Fc (H4H prefix)"}, "B8": {"name": "H4H15335P (antibody, human IgG4, V domains shown)", "VH": "QVQLVESGGGVVQPGRSLRLSCAASGFTFNNYGIHWVRQAPGKGLEWVAVISYDESNKYYADSVKGRFTISRDNSKNTLYLQMNSLRAEDTAVYYCAKDIRIAARRHYYYYGMDVWGQGTTVTVSS", "VL": "DIQMTQSPSSVSASVGDRVTITCRASQGISRWLAWYQQKPGKAPKLLIYAASSLESGVPARFSGSGSGTDFTLTISSLQPEDFATYYCQQANSFPITFGPGTKVDIK", "notes": "human IgG4 Fc (H4H prefix)"}, "B9": {"name": "H4H15355P2 (antibody, human IgG4, V domains shown)", "VH": "QVQLVESGGGVVQPGRSLRLSCAASGFTFTNYAMHWVRQAPGKGLEWVAVISYDGSHTYFADSVKGRFTMSRDNSKNTISLQMNSLRPEDTAVYFCAGGGATTWFYFYGLDVWGQGTTVTVSS", "VL": "not shown", "notes": "human IgG4 Fc (H4H prefix)"}, "B10": {"name": "H4H15318P (antibody, human IgG4, V domains shown)", "VH": "QVQLVESGGGVVQPGRSLRLSCTASGFTFGNFGIHWVRQAPGKGLEWVAVISYDGTDKFYADPVKGRFIISRDNSMNILYLQMNSLRAEDTAVYYCAKDGEMELRGYYYYYGMDVWGQGTTVTVSS", "VL": "DIQMTQSPSSVSASVGDRVTITCRASQGINTWLAWYQQKPGTAPKLLIFAASSLESGVPSRFSGSGFGTDFTLTISSLQSEDLATYFCQQVHSPPYTFGQGTKLEIK", "notes": "human IgG4 Fc (H4H prefix)"}, "B11": {"name": "H4H15357P2 (antibody, human IgG4, V domains shown)", "VH": "EVQLVESGGGLVKPGGSLRLSCTASGFTFGNAWMSWVRQAPGKGLEWVGLIKGKTDGGTTNYAAPVKGRFTISRDDSKNTLYLHLNSLRTEDTALYYCTTDQVELRQYYYYGLDVWGQGTTVTVSS", "VL": "not shown", "notes": "human IgG4 Fc (H4H prefix)"}, "B12": {"name": "H4H15369P2 (antibody, human IgG4, V domains shown)", "VH": "EVQLVESGGGLVQPGGSLRLSCVGTGFTFSNYAMSWVRQAPGKGLEWVSGISGRSSGTFYADSVKGRFTISRDNSQNTLYLQMNSLGAEDTAVYYCAKVSRYNWDYVPFDFWGQGTLVTVSS", "VL": "not shown", "notes": "human IgG4 Fc (H4H prefix)"}, "B13": {"name": "H4H15323P (antibody, human IgG4, V domains shown)", "VH": "EVQLVESGGGLVQPGGSLRLSCAASGFTFSSYAMTWVRQAPGKGLEWVSAISGSGGSTYYTDSVKGRFTLSRDNSKNTLYLQMNSLRAEDTAVYYCAKSDYSNTIYWYYGMDVWGQGTTVTVSS", "VL": "not shown", "notes": "human IgG4 Fc (H4H prefix)"}, "B14": {"name": "H4H15361P2 (antibody, human IgG4, V domains shown)", "VH": "EVQLVESGGGLVQPGRSLRLSCTASGFSFGDNAMGWVRQAPGKGLEWVSFIRRKASGGTTEYAASVKGRFTISRDDSKSIAYLQMNSLKTEDTGVYYCTRGGAVYGYWGQGTLVTVSS", "VL": "not shown", "notes": "human IgG4 Fc (H4H prefix)"}, "B15": {"name": "H4H15330P (antibody, human IgG4, V domains shown)", "VH": "QVQLVESGGGLVKPGGSLRLSCAASGFTFSDYYMSWIRQAPGKGLEWISHISGSGRTTHYADSMKGRFTISRDNAKNSLYLQMNSLRAEDTAVYYCVREGGFNWNYEGTFDIWGQGTMVTVSS", "VL": "DIVMTQTPLSSPVTLGQPASISCRSSQSLLHSDQNTYLSWLHQRPGQPPRLLIYKISNRFSGVPDRFSGSGAGTDFTLKISRVEAEDVGIYYCMQGTQFPLTFGGGTKVEIK", "notes": "human IgG4 Fc (H4H prefix)"}, "B16": {"name": "H4H15363P2 (antibody, human IgG4, V domains shown)", "VH": "EVQLVESGGGLVQPGGSLRLSCAASGFTFSNYAMSWVRQVPGKGLEWVSTISGSGGSTYYADSVKGRFTISRDNSKNSLYLQMNSLRAEDTAVYYCAKLVRGVIGWFDPWGQGTLVTVSS", "VL": "not shown", "notes": "human IgG4 Fc (H4H prefix)"}, "B17": {"name": "H4H15362P2 (antibody, human IgG4, V domains shown)", "VH": "QVQLVESGGGVVQPGRSLRLSCAASGFTFSSYGMHWVRQAPGKGLEWVAVIWYDGSNKYYADSVKGRFTISRDNSKNTLYLQMNSLRAEDTAVYYCARDWVRFLEWFPHFDYWGQGTLVTVSS", "VL": "not shown", "notes": "human IgG4 Fc (H4H prefix)"}, "B18": {"name": "H4H15350P2 (antibody, human IgG4, V domains shown)", "VH": "EVQLVESGGGLVQPGGSLRLSCAASGFTFSSFRMTWVRQAPGKGLEWVANIKQDGSEKYYVDSVKGRFTISRDNAKNSLYLQMNSLRAEDTAVYYCARGGGIAAYWGQGTLVTVSS", "VL": "not shown", "notes": "human IgG4 Fc (H4H prefix)"}}, "note": "Numbering of substitutions follows the chain as printed. Names may count otherwise.", "data": [{"target": "T1, monkey ANGPTL8 expressed with C-terminal mouse IgG2a Fc tag (cynomolgus monkey)", "T1 construct": "also called MfANGPTL8-mFc; mfANGPTL8-mFc", "T1 chain": "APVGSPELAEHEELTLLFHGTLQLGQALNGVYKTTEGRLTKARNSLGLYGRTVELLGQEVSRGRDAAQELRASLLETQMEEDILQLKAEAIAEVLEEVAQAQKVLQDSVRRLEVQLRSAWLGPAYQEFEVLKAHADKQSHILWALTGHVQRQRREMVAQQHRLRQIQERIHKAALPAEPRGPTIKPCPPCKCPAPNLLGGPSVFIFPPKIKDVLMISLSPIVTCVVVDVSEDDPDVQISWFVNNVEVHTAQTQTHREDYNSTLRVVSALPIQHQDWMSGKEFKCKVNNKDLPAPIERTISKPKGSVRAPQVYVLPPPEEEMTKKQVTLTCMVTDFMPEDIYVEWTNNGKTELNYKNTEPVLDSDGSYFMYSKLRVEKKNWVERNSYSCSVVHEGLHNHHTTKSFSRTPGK", "assay": "BLI (Octet HTX), MfANGPTL8-mFc captured on AMC sensor", "procedure": "(§1) Binding of ANGPTL8 antibodies to human and monkey ANGPTL8 proteins was investigated using Bio-layer Interferometry with an Octet HTX biosensor platform (ForteBio, A Division of Pall Life Sciences). All experiments were performed at 25° C. in 10 mM HEPES pH 7.4, 150 mM NaCl, 0.05% v/v Surfactant Tween-20, and 1 mg/ml BSA with the reaction multiwell plate agitated at 1000 rpm. Approximately 1.6 nm of human ANGPTL8 produced with a C-terminal mouse IgG2a Fc tag (hANGPTL8-mFc; SEQ ID NO: 340) or cynomolgus monkey ANGPTL8 produced with a C-terminal mouse IgG2a Fc tag (MfANGPTL8-mFc; SEQ ID NO: 341) was captured onto anti-mFc (AMC) Octet biosensors by submerging the sensors into wells containing 10 μg/mL of each protein for 4 minutes. Under the same conditions a negative control protein with the same mFc tag (hLDLR-mFc) was also coupled to the AMC sensor. All four sensors, […] and one blank, were then submerged into wells containing 100 nM of different ANGPTL8 monoclonal antibodies or an isotype control for 4 minutes.", "values": [{"binder": "B1", "binding result": "no binding (tested: background 0.03 nm at 100 nM mAb)"}, {"binder": "B2", "binding result": "no binding (tested: background 0.03 nm at 100 nM mAb)"}, {"binder": "B3", "binding result": "no binding (tested: background 0.03 nm at 100 nM mAb)"}]}, {"target": "T2, hLDLR-mFc (negative control protein with the same mFc tag) (human, UniProt P01130 22-788)", "T2 construct": "also called Irrelevant control; not shown: mFc tag ('the same mFc tag', mouse IgG2a Fc)", "T2 sequence (P01130 22-788)": "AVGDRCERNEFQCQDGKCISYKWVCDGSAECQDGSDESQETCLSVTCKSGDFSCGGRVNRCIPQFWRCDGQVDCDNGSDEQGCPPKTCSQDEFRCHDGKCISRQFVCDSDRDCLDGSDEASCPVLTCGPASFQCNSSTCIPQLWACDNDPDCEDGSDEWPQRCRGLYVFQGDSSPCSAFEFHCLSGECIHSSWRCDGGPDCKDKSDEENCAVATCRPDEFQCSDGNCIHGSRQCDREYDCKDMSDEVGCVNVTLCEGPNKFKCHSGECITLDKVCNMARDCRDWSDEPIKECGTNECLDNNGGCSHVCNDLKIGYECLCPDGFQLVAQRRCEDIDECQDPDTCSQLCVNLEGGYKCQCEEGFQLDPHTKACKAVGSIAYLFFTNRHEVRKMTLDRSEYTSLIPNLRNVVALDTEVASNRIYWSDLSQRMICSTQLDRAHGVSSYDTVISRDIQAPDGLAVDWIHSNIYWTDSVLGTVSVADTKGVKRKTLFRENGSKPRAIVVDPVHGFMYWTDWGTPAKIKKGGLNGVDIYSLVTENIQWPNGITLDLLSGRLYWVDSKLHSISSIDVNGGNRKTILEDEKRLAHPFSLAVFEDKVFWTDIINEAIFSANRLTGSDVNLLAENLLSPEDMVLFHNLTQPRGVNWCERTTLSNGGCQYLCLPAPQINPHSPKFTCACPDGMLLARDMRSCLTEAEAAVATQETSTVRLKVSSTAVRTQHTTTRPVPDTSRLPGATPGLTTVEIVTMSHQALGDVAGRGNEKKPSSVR", "assay": "BLI (Octet HTX), hLDLR-mFc captured on AMC sensor", "procedure": "as §1", "values": [{"binder": "B4", "binding result": "no binding (tested: 0.03 nm at 100 nM mAb)"}, {"binder": "B5", "binding result": "no binding (tested: 0.03 nm at 100 nM mAb)"}, {"binder": "B6", "binding result": "no binding (tested: 0.03 nm at 100 nM mAb)"}, {"binder": "B1", "binding result": "no binding (tested: 0.03 nm at 100 nM mAb)"}, {"binder": "B7", "binding result": "no binding (tested: 0.03 nm at 100 nM mAb)"}, {"binder": "B8", "binding result": "no binding (tested: 0.03 nm at 100 nM mAb)"}, {"binder": "B2", "binding result": "no binding (tested: 0.03 nm at 100 nM mAb)"}, {"binder": "B9", "binding result": "no binding (tested: 0.03 nm at 100 nM mAb)"}, {"binder": "B10", "binding result": "no binding (tested: 0.03 nm at 100 nM mAb)"}, {"binder": "B3", "binding result": "no binding (tested: 0.03 nm at 100 nM mAb)"}, {"binder": "B11", "binding result": "no binding (tested: 0.03 nm at 100 nM mAb)"}, {"binder": "B12", "binding result": "no binding (tested: 0.03 nm at 100 nM mAb)"}, {"binder": "B13", "binding result": "no binding (tested: 0.03 nm at 100 nM mAb)"}, {"binder": "B14", "binding result": "no binding (tested: 0.03 nm at 100 nM mAb)"}, {"binder": "B15", "binding result": "no binding (tested: 0.03 nm at 100 nM mAb)"}, {"binder": "B16", "binding result": "no binding (tested: 0.03 nm at 100 nM mAb)"}, {"binder": "B17", "binding result": "no binding (tested: 0.03 nm at 100 nM mAb)"}, {"binder": "B18", "binding result": "no binding (tested: 0.03 nm at 100 nM mAb)"}]}]}
